Test results reported in the Human Domainome abundance scans (Beltran et al. 2025).

B1: Integrator complex subunit 12, residues 155 to 213; numbered along this chain, Q96CB8 (parent)
chain: AMEMGLACVVCRQMMVASGNQLVECQECHNLYHRDCHKPQVTDKEANDPRLVWYCARCT

Variants of: B1
Assay: abundance fitness (aPCA) (normalised: wild type 0, dead -1); higher = more abundant; growth selection in yeast, the domain comes from the species named
Conditions: Homo sapiens

Abundance fitness of substitutions, site by site:
M15: R 0.023 | L -0.013 | Q 0.115 | T 0.04 | P 0.084 | K 0.094 | E -0.081 | A 0.067 | D 0.09 | S 0.079 | Y -0.025 | W -0.171 | H 0.083 | F -0.053 | N 0.063 | I 0.028
A17: W -0.388 | L -0.179 | E -0.04 | N 0.001 | C -0.048 | Y -0.091 | K 0.037 | V -0.075 | M -0.049 | T -0.065 | R -0.03 | Q 0.069 | S 0.006 | I -0.098 | P 0.005 | F -0.233 | D -0.211
Q13: I -0.147 | E -0.074 | S -0.033 | N -0.024 | M -0.132 | R -0.2 | Y -0.382 | D -0.075 | T -0.089 | A -0.088 | H -0.043 | F -0.354 | G -0.17 | K 0.011 | C -0.125 | V -0.114 | L -0.088 | W -0.758
C11: V -1.06 | F -0.898 | Y -1 | R -0.885 | I -0.856 | Q -1 | N -0.673 | G -0.958 | T -0.933 | W -0.958 | A -0.937 | D -0.818 | M -1.07 | L -1.09 | H -0.839 | S -0.877 | K -0.761 | E -0.782
R12: K 0.052 | C -0.069 | T -0.049 | Q 0.047 | W -0.405 | M -0.081 | N 0.002 | G 0.028 | S 0.055 | D 0.038 | P -0.546 | V -0.463 | I -0.74 | L -0.101 | E 0.007 | F -0.226
A7: H 0.078 | P 0.069 | S 0.01 | C -0.022 | F -0.172 | E -0.064 | Q -0.077 | G -0.155 | N 0.039 | L -0.064 | W -0.41 | D -0.027 | Y -0.144 | I 0.008 | T 0.032 | M -0.069
N20: H -0.015 | R -0.045 | A -0.03 | L -0.219 | Y -0.171 | C -0.098 | E -0.007 | T -0.007 | W -0.281 | D 0.005 | M -0.387 | G -0.05 | F -0.165 | S -0.036 | K 0.02 | P -0.011 | V -0.049 | I -0.089
M2: P -0.31 | Y -0.127 | L -0.003 | G 0.009 | H -0.136 | I 0.059 | K -0.013 | S 0.065 | F -0.055 | T 0.073 | Q -0.058 | W -0.167 | N -0.112 | R -0.054 | E -0.046
S18: D 0.043 | K 0.009 | N 0.015 | T 0.037 | I -0.129 | F -0.124 | A 0.017 | W -0.34 | E -0.001 | P 0.077 | H 0.014 | L -0.107 | C -0.135 | G -0.002 | R -0.066 | M -0.078 | V -0.102 | Y -0.183 | Q 0.001
C8: D -0.787 | M -1.19 | K -0.874 | G -1.11 | E -0.927 | S -0.757 | H -0.901 | R -0.841 | F -1 | N -0.675 | L -0.978 | V -1.14 | I -1.04 | P -0.633 | W -1.38 | Q -0.71 | T -0.814
V16: Q -0.013 | T 0.044 | P -0.002 | L -0.022 | F -0.02 | I -0.089 | Y -0.144 | G 0.037 | C -0.029 | W -0.148 | R 0.019 | D 0.017 | N 0.016 | E 0.029 | K 0.03 | A 0.042 | S 0.011
E3: R -0.304 | N -0.056 | P -0.359 | F -0.304 | L -0.321 | K -0.089 | M -0.232 | I -0.238 | D -0.065 | G -0.167 | H -0.163 | C -0.168 | T -0.137 | V -0.119 | Y -0.222 | Q -0.102 | S -0.038 | A -0.103
V9: E -0.197 | T -0.02 | R -0.181 | L -0.202 | W -0.45 | Y -0.147 | S -0.118 | K -0.279 | Q 0.051 | P -0.289 | A -0.046 | I -0.101 | F -0.081 | G -0.216 | M -0.204 | N -0.223 | C 0.049 | D -0.248
G19: W -0.286 | Y -0.167 | A -0.042 | E 0.058 | N -0.014 | F -0.353 | D 0.031 | I -0.137 | R -0.116 | P -0.069 | Q -0.175 | H -0.072 | K 0.065 | M -0.206 | T -0.026 | S -0.044 | V -0.088
G5: C -0.143 | A -0.001 | H 0.026 | E 0.066 | N 0.043 | M -0.152 | K 0.143 | R -0.058 | P -0.053 | Q 0.085 | F -0.28 | L -0.216 | Y -0.267 | I -0.205 | V -0.13 | S 0.007 | T -0.045
Q21: R 0.004 | H 0 | P -0.072 | K -0.123 | F -0.078 | E -0.067 | A -0.026 | N -0.056 | D -0.008 | M 0.079 | G -0.018 | I -0.091
M14: Y 0.019 | K 0.085 | V 0.06 | N 0.031 | H -0.02 | G 0.115 | D 0.101 | I 0.028 | E 0.042 | T 0.016 | S 0.073 | P -0.007 | Q 0.082 | R 0.067 | A 0.06
L6: A 0.099 | Y -0.063 | P -0.03 | D 0.075 | G -0.034 | H 0.038 | W -0.552 | V 0.036 | E -0.106 | S 0.073 | C -0.054 | Q 0.014 | M 0.086 | K 0.173 | F -0.081 | T 0.041 | R -0.08 | I 0.007
V10: E -0.11 | G -0.206 | M -0.153 | I -0.047 | N -0.191 | S -0.401 | Q -0.157 | F -0.241 | W -0.381 | C -0.193 | P -0.627 | A -0.059 | K -0.242 | R -0.347 | H -0.161 | Y -0.202 | T -0.46
M4: C -0.026 | Q -0.055 | W -0.43 | G -0.044 | K -0.034 | V 0.006 | S 0.045 | L -0.027 | P -0.022 | I 0.023 | T 0.04 | D -0.06 | H 0.065 | Y -0.168 | F -0.096
